Six molecules from patent US20110110856A1 (SIGNALOMICS, published 2011) can be followed below.

The chains are these.
B1: DraE T88M Q34L N84S (ligand)
chain: GFTPSGTTGTTKLTVTEECQVRVGDLTVAKTRGLLTDAAPIGPVTVQALGCDARQVALKADTDNFEQGKFFLISDNKRDKLYVSIRPMDNSAWTTDNGVFYKNDVGSWGGIIGIYVDGQQTNTPPGNYTLTLTGGYWAK
B2: combined mutant F100S T11I D37G (on DraE T88M N77K) (ligand)
chain: GFTPSGTTGTIKLTVTEECQVRVGDLTVAKTRGQLTGAAPIGPVTVQALGCDARQVALKADTDNFEQGKFFLISDNKRDKLYVNIRPMDNSAWTTDNGVSYKNDVGSWGGIIGIYVDGQQTNTPPGNYTLTLTGGYWAK
notes: also called F1005 T11I D37G
B3: combined mutant T95E T123I (on DraE T88M N77K) (ligand)
chain: GFTPSGTTGTTKLTVTEECQVRVGDLTVAKTRGQLTDAAPIGPVTVQALGCDARQVALKADTDNFEQGKFFLISDNKRDKLYVNIRPMDNSAWTEDNGVFYKNDVGSWGGIIGIYVDGQQTNIPPGNYTLTLTGGYWAK
notes: also called T95E T1231
B4: combination mutant F100I T123I (on DraE T88M N77K) (ligand)
chain: GFTPSGTTGTTKLTVTEECQVRVGDLTVAKTRGQLTDAAPIGPVTVQALGCDARQVALKADTDNFEQGKFFLISDNKRDKLYVNIRPMDNSAWTTDNGVIYKNDVGSWGGIIGIYVDGQQTNIPPGNYTLTLTGGYWAK
B5: DraE T88M G118S I85L (ligand)
chain: GFTPSGTTGTTKLTVTEECQVRVGDLTVAKTRGQLTDAAPIGPVTVQALGCDARQVALKADTDNFEQGKFFLISDNKRDKLYVNLRPMDNSAWTTDNGVFYKNDVGSWGGIIGIYVDSQQTNTPPGNYTLTLTGGYWAK
B6: DraE T88M (N77K) I111H (ligand)
chain: GFTPSGTTGTTKLTVTEECQVRVGDLTVAKTRGQLTDAAPIGPVTVQALGCDARQVALKADTDNFEQGKFFLISDNKRDKLYVNIRPMDNSAWTTDNGVFYKNDVGSWGGHIGIYVDGQQTNTPPGNYTLTLTGGYWAK

The target of the first experiment is T1, N-terminal domain of CEA (Homo sapiens (Human), UniProt P06731 35-144).
T1 construct: Target of the yeast two-hybrid screens; synthetic gene, codon-optimised for S. cerevisiae, cloned into a yeast TH vector; The fusion partner of the vector is not described; also called N-CEA; CEACAM5
T1 sequence: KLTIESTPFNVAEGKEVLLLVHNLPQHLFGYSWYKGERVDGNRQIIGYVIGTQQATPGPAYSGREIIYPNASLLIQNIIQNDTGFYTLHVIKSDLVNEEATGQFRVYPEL
As to the kind of experiment: yeast two-hybrid, FDG rescreening.
Take B1: the binding result is on record as “binds”. The same measure, in the same setting: the result for B2 reads “binds”; that for B3, “binds”; that for B4, “binds”. In the case of B5, the binding result was “binds”.

The next experiment addresses T1, N-terminal domain of CEA. As to the kind of experiment: yeast two-hybrid screen against N-CEA.
For the molecule B6, the binding result is “binds”.
